Results: US20260022353

Target: piggyBac transposase, 5 hyperactive mutations (Hyper) I30V,G165S,M226F,M282V,N538K (Trichoplusia ni?) (UniProt Q27026)
Test: cell_activity
Settings: ~50% enhanced integration in K562 (p260); ~50% enhanced excision in 293T (p263)

Sequence of UniProt Q27026 (Q27026 entry or part of it I30V G165S M226F M282V N538K): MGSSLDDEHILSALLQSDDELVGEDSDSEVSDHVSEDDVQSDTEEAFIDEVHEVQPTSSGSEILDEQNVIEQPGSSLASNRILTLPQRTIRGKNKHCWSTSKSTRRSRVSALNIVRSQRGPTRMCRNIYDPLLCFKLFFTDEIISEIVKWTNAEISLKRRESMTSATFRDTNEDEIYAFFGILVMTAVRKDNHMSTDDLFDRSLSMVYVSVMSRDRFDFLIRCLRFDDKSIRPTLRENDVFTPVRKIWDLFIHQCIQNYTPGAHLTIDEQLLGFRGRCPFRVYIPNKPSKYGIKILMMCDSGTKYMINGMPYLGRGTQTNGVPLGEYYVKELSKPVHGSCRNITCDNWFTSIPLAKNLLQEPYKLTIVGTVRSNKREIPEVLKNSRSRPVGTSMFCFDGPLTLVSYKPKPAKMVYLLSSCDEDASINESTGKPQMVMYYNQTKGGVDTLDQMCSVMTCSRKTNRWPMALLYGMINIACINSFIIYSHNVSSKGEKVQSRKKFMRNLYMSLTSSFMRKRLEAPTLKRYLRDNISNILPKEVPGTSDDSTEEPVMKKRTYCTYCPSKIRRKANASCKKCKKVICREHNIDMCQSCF

“piggyBac transposon with wild type LE and RE ITRs (dual reporter)” gave an activity (fold vs 4-mutation SPB) of 1.5.
